Experimental data from patent publication US5783681, “Androgen regulation with DNA sequences of rat probasin gene” (University of Manitoba).

Columns and labels:
[1] = target: T1, androgen receptor (hAR) wild type (Homo sapiens) (UniProt P10275); assay: cell_activity; conditions: 10 nM DHT; background 4.2
T1 sequence: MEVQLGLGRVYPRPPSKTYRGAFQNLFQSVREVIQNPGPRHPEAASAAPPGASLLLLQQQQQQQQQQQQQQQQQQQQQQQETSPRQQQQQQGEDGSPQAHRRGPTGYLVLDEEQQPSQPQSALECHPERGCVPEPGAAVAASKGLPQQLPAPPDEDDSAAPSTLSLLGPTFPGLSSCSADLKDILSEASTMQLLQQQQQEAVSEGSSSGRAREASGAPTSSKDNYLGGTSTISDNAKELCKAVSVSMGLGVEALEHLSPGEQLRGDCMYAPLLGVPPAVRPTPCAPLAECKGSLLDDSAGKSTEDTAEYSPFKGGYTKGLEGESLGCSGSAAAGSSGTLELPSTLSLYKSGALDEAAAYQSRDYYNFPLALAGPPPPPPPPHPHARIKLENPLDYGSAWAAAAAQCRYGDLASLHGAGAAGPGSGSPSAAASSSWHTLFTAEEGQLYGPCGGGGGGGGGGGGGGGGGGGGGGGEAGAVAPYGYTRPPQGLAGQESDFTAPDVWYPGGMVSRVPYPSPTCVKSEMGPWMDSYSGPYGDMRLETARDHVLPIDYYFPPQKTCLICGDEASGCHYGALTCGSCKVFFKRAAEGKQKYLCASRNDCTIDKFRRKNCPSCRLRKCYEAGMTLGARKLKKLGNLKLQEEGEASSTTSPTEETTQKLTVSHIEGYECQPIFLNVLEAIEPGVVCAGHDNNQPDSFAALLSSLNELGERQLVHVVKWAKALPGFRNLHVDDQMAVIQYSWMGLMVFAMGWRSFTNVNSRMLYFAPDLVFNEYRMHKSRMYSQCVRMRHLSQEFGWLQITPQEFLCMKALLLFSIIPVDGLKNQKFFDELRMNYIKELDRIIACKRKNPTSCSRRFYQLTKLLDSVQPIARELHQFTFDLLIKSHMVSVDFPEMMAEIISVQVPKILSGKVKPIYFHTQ

[2] = target: T2, androgen receptor V865L V865L (Homo sapiens) (UniProt P10275); assay: cell_activity; conditions: 10 nM DHT; background 4.2
T2 sequence: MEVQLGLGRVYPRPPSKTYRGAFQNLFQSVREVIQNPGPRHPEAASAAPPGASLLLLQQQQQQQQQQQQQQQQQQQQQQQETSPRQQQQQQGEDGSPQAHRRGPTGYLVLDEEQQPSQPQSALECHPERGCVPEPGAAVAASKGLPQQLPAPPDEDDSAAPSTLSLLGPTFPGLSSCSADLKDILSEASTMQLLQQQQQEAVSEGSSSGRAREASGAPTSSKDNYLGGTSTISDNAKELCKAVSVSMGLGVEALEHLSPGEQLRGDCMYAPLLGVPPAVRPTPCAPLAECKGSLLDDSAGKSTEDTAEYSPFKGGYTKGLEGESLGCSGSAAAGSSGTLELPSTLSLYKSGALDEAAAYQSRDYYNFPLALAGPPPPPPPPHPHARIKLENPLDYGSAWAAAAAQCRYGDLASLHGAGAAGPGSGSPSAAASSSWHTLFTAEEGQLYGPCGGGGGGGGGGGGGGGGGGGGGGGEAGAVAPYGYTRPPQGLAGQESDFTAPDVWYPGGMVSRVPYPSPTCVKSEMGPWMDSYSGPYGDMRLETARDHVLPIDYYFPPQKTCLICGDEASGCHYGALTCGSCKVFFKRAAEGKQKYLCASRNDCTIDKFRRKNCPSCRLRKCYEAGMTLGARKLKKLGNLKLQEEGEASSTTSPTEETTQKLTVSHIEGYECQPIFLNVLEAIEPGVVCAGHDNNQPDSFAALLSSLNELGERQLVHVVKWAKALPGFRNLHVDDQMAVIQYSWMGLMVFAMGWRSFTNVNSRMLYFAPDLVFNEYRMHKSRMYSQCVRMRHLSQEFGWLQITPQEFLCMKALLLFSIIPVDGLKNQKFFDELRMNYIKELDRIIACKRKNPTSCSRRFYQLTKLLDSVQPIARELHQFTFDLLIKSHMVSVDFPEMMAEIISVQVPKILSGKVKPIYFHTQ

[3] = target: androgen receptor V865M V865M (Homo sapiens) (UniProt P10275); assay: cell_activity; conditions: 10 nM DHT; background 4.2
[4] = target: T3, androgen receptor (AR) (Rattus norvegicus) (UniProt P15207); assay: cell_activity; conditions: DHT, CAT reporter
T3 sequence: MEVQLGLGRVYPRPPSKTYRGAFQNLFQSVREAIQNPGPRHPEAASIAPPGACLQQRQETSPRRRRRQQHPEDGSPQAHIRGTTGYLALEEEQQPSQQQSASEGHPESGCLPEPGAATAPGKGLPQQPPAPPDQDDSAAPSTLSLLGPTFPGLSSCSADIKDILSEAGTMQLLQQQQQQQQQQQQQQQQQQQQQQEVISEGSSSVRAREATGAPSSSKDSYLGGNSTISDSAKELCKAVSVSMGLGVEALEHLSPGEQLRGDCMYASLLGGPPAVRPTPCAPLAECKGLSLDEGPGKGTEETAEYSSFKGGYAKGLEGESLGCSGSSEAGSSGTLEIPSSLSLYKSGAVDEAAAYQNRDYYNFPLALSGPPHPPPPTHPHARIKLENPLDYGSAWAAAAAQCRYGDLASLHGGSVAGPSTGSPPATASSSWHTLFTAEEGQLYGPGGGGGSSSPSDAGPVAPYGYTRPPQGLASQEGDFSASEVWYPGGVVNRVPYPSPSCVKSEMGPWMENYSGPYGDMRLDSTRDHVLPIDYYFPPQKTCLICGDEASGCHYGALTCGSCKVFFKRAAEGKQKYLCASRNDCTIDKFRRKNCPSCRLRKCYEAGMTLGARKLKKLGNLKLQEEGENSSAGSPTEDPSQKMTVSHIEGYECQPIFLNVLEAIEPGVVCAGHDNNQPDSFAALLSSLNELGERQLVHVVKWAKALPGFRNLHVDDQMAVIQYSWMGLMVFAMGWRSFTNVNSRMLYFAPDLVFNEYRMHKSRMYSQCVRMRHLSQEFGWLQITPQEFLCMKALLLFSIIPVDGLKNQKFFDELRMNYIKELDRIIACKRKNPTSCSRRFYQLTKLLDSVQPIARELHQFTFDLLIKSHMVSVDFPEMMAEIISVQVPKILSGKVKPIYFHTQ

[5] = target: T4, glucocorticoid receptor (GR) (Rattus norvegicus) (UniProt P06536); assay: cell_activity; conditions: DEX, CAT reporter
T4 sequence: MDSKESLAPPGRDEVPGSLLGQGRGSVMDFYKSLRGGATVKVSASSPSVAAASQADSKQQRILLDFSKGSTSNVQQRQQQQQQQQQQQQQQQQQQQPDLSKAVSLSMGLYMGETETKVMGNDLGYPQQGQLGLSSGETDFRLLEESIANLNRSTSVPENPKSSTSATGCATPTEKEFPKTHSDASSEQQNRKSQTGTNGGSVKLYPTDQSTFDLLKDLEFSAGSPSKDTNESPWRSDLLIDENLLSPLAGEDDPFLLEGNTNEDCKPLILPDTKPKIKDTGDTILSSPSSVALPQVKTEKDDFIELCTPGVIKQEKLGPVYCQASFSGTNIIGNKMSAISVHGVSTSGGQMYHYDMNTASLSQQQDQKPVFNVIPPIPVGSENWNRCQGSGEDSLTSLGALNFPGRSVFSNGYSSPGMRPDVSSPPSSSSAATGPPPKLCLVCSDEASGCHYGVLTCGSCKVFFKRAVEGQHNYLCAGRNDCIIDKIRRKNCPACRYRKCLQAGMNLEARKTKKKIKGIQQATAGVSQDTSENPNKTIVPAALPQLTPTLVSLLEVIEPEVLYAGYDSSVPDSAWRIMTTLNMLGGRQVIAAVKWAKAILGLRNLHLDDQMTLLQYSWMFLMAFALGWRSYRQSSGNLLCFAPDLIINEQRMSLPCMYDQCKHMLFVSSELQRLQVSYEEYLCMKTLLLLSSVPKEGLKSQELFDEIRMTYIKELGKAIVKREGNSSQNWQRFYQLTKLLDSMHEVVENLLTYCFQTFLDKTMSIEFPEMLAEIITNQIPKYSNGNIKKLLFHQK

[6] = target: T5, glucocorticoid receptor (GR) (Rattus norvegicus, UniProt P06536 P06536:1-795); assay: cell_activity; DEX, CAT reporter; conditions: chain copies: 2
Experimental: (§1) Cells which had undergone transient transfection were harvested in phosphate buffered saline containing 1 mM EDTA. After centrifugation at 2000×g for 4 min at room temperature, cells were lysed in 0.1M Tris-HCl/0.1% Triton X-100, pH 7.8 for 15 min on ice. Insoluble material was removed by centrifugation at 14,500×g, 15 minutes, at 4° C. The CAT activity in the cell extract was determined by a two-phase fluor diffusion assay (Nachtigal et al., 1989). Also, the DNA was isolated from the insoluble material and 2 µg samples were placed in duplicate on nitrocellulose membrane via slot-blot apparatus and probed with ^32P-labelled CAT insert DNA. Autoradiograms were analyzed by densitometry and all CAT activity data was normalized for transfection efficiency. For transgenic mice, a total cellular extract of each tissue was assayed for CAT activity.
(§2) Due to the lack of appropriate cell lines containing either androgen receptors and/or prostatic in origin, a range of cell lines was tested. The human prostatic cells LNCaP would express and androgen regulate PB-CAT-while HeLa, prostatic DU-145 and PC-3 cells required co-transfection of an androgen receptor expression vector for androgen regulation. […]

androgen receptor (AR) [7] = target: T6, androgen receptor (AR) (Rattus norvegicus, UniProt P15207 P15207:1-902); assay: cell_activity; DHT, CAT reporter; conditions: chain copies: 2
Experimental: as §1, §2

androgen receptor (AR) [8] = target: T6, androgen receptor (AR); assay: cell_activity; DHT, TK promoter CAT reporter; conditions: chain copies: 2
Experimental: as §1, §2

[9] = target: T5, glucocorticoid receptor (GR); assay: cell_activity; DEX, TK promoter CAT reporter; conditions: chain copies: 2
Experimental: as §1, §2

## TAGTCATCATGTTTAAACATCTACCATTCCAGTTAAGAAAATATGATAGCATCTTGTTCTTAGTCTTTTTCTTAATAGGGACATAAAGCCCACAAATAAAAATATGCCTGAAGAATGGGACAGGCATTGGGCATTGTCCATGCCTAGTAAAGTACTCCAAGAACCTATTTGTATACTAGATGACACAATGTCAATGTCTGTGTACAACTGCCAACTGGGATGCAAGACACTGCCCATGCCAATCATCCTGAAAAGCAGCTATAAAAAGCAGGAAGCTACTCTGCACCTTGTCAGTGAGGTCCAGATACCTACAG (double strand) [probasin -286 to +28 ARE2*]
[1]
  activity (dpm/min/mg protein): 177
[2]
  activity (dpm/min/mg protein): 122
[3]
  activity (dpm/min/mg protein): 49

## TAGTCATCATGTTTAAACATCTACCATTCCAGTTAAGAAAATATGATAGCATCTTGTTCTTAGTCTTTTTCTTAATAGGGACATAAAGCCCACAAATAAAAATATGCCTGAAGAATGGGACAGGCATTGGGCATTGTCCATGCCTAGTAAAGTACTCCAAGAACCTATTTGTATACTAGATGACACAATGTCAATGTCTGTGTACAACTGCCAACTGGGATGCAAGACACTGCCCATGCCAATCATCCTGAAAAGCAGCTATAAAAAGCAGGAAGCTACTCTGCACCTTGTCAGTGAGGTCCAGATACCTACAG (double strand) [probasin -286 to +28]
[3]
  activity (dpm/min/mg protein): 42

## ATGATAGCATCTTGTTCTTAGTCTTTTTCTTAATAGGGACATAAAGCCCACAAATAAAAATATGCCTGAAGAATGGGACAGGCATTGGGCATTGTCCATGCCTAGTAAAGTACTCCAAGAACCTATTTGTATACTAGATGACACAATGTCAATGTCTGTGTACAACTGCCAACTGGGATGCAAGACACTGCCCATGCCAATCATCCTGAAAAGCAGCTATAAAAAGCAGGAAGCTACTCTGCACCTTGTCAGTGAGGTCCAGATACCTACAG (double strand) [probasin -244 to +28]
[4]
  activity (fold induction): 49
[5]
  activity (fold induction): 9

## ATAGCATCTTGTTCTTAGTGGGCATTGTCCATGCCTAGTAAAGTACTCCAAGAACCTATTTGTATACTAGATGACACAATGTCAATGTCTGTGTACAACTGCCAACTGGGATGCAAGACACTGCCCATGCCAATCATCCTGAAAAGCAGCTATAAAAAGCAGGAAGCTACTCTGCACCTTGTCAGTGAGGTCCAGATACCTACAG (double strand) [ARE-1 adjacent to probasin -158 to +28]
[5]
  activity (fold induction): 21

B1: probasin -158 to +28 (dsDNA)
DNA 1: GGGCATTGTCCATGCCTAGTAAAGTACTCCAAGAACCTATTTGTATACTAGATGACACAATGTCAATGTCTGTGTACAACTGCCAACTGGGATGCAAGACACTGCCCATGCCAATCATCCTGAAAAGCAGCTATAAAAAGCAGGAAGCTACTCTGCACCTTGTCAGTGAGGTCCAGATACCTACAG
DNA 2: CTGTAGGTATCTGGACCTCACTGACAAGGTGCAGAGTAGCTTCCTGCTTTTTATAGCTGCTTTTCAGGATGATTGGCATGGGCAGTGTCTTGCATCCCAGTTGGCAGTTGTACACAGACATTGACATTGTGTCATCTAGTATACAAATAGGTTCTTGGAGTACTTTACTAGGCATGGACAATGCCC
[6]
  activity: 1.2 fold induction
Androgen receptor (AR) [7]
  activity: 1.4 fold induction

B2: probasin -244 to -96 (dsDNA)
DNA 1: ATGATAGCATCTTGTTCTTAGTCTTTTTCTTAATAGGGACATAAAGCCCACAAATAAAAATATGCCTGAAGAATGGGACAGGCATTGGGCATTGTCCATGCCTAGTAAAGTACTCCAAGAACCTATTTGTATACTAGATGACACAATGT
DNA 2: ACATTGTGTCATCTAGTATACAAATAGGTTCTTGGAGTACTTTACTAGGCATGGACAATGCCCAATGCCTGTCCCATTCTTCAGGCATATTTTTATTTGTGGGCTTTATGTCCCTATTAAGAAAAAGACTAAGAACAAGATGCTATCAT
Androgen receptor (AR) [8]
  activity: 61 fold induction
[9]
  activity: 96 fold induction
